Article PMC3446985

Molecular target: human GRP78 (human) (UniProt P11021)
Assay: AUC; sedimentation velocity, GRP78 alone at 0.4, 0.6 and 1.2 mg/mL, 28,000 rpm, 20°C, 20 mM sodium phosphate pH 7.0, 100 mM NaCl, 55 mM arginine, c(S) analysis; monomer to dimer

Chain of human GRP78, P11021 19-654 (natural protein; other documents disagree on this pair) (P11021 19-654): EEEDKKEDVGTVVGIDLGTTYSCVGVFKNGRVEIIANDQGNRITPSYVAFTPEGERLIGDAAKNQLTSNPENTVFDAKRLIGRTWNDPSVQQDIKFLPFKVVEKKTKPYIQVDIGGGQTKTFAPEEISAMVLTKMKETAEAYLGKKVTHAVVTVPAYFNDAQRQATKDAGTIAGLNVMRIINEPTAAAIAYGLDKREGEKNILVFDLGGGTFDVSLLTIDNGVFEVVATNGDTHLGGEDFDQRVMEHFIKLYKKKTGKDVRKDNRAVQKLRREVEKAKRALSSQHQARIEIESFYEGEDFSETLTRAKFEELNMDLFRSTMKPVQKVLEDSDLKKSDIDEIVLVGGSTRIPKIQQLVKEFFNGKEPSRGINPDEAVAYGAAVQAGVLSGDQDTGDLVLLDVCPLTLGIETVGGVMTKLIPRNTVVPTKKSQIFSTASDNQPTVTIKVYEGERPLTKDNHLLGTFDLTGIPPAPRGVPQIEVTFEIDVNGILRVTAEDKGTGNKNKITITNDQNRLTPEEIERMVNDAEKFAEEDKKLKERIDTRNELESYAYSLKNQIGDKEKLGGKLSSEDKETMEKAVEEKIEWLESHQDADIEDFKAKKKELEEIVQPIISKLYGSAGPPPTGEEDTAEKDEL

human GRP78, P11021 19-654 (natural protein; other documents disagree on this pair)
stoichiometry N: 2
